Results from publication PMC2883962.

Biological target: prostate apoptosis response protein 4 (Par-4), endogenous in native colon cancer cells (human (endogenous in HT29 and SW480)) (UniProt Q96IZ0)
Test: co-IP; Par-4 immunoprecipitated from lysates of native HT29 cells treated for 24 h with vehicle or 12.5 or 25 μM ISC-4 (AKT inhibitor); immunoprecipitates immunoblotted with PKA, NFκB p50 and 14-3-3 antibodies

14-3-3, sequence (P63104 whole entry): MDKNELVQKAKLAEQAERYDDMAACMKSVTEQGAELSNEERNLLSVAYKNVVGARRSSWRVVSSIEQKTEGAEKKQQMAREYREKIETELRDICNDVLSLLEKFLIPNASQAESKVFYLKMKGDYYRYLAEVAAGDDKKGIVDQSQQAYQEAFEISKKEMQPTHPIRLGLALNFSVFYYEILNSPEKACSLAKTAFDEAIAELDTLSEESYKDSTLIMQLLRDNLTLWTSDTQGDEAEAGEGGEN
UniProt Q96IZ0, sequence (Q96IZ0 whole entry): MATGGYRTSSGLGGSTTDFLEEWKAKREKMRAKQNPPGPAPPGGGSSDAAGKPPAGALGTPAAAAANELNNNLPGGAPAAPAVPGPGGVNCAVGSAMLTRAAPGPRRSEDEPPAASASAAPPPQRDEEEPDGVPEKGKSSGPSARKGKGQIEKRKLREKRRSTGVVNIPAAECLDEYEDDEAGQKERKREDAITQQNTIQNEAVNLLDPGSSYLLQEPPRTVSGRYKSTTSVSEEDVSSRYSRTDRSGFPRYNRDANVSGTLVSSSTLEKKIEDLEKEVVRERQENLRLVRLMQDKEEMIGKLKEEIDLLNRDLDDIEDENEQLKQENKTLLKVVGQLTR

Substance: 14-3-3 (from UniProt P63104 1-245) (natural protein)
- fold decrease of Par-4 binding with ISC-4 against vehicle: 3 fold
